This is an account of results in PMC7374751.

Sequence of MMP-1 (P03956 100-469): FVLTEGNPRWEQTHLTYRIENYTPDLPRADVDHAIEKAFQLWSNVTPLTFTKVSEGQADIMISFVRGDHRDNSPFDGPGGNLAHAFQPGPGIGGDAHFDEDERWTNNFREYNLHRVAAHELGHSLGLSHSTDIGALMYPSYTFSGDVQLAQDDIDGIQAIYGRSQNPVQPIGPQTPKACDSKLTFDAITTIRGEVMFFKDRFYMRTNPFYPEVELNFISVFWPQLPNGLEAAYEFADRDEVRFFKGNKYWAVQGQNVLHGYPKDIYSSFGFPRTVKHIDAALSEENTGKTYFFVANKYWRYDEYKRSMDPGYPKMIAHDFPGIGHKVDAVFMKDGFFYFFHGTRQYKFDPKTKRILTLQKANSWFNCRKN

The first experiment deals with LRP-1 (Homo sapiens) (UniProt Q07954).
Sequence of LRP-1 (Homo sapiens) (Q07954 20-4544): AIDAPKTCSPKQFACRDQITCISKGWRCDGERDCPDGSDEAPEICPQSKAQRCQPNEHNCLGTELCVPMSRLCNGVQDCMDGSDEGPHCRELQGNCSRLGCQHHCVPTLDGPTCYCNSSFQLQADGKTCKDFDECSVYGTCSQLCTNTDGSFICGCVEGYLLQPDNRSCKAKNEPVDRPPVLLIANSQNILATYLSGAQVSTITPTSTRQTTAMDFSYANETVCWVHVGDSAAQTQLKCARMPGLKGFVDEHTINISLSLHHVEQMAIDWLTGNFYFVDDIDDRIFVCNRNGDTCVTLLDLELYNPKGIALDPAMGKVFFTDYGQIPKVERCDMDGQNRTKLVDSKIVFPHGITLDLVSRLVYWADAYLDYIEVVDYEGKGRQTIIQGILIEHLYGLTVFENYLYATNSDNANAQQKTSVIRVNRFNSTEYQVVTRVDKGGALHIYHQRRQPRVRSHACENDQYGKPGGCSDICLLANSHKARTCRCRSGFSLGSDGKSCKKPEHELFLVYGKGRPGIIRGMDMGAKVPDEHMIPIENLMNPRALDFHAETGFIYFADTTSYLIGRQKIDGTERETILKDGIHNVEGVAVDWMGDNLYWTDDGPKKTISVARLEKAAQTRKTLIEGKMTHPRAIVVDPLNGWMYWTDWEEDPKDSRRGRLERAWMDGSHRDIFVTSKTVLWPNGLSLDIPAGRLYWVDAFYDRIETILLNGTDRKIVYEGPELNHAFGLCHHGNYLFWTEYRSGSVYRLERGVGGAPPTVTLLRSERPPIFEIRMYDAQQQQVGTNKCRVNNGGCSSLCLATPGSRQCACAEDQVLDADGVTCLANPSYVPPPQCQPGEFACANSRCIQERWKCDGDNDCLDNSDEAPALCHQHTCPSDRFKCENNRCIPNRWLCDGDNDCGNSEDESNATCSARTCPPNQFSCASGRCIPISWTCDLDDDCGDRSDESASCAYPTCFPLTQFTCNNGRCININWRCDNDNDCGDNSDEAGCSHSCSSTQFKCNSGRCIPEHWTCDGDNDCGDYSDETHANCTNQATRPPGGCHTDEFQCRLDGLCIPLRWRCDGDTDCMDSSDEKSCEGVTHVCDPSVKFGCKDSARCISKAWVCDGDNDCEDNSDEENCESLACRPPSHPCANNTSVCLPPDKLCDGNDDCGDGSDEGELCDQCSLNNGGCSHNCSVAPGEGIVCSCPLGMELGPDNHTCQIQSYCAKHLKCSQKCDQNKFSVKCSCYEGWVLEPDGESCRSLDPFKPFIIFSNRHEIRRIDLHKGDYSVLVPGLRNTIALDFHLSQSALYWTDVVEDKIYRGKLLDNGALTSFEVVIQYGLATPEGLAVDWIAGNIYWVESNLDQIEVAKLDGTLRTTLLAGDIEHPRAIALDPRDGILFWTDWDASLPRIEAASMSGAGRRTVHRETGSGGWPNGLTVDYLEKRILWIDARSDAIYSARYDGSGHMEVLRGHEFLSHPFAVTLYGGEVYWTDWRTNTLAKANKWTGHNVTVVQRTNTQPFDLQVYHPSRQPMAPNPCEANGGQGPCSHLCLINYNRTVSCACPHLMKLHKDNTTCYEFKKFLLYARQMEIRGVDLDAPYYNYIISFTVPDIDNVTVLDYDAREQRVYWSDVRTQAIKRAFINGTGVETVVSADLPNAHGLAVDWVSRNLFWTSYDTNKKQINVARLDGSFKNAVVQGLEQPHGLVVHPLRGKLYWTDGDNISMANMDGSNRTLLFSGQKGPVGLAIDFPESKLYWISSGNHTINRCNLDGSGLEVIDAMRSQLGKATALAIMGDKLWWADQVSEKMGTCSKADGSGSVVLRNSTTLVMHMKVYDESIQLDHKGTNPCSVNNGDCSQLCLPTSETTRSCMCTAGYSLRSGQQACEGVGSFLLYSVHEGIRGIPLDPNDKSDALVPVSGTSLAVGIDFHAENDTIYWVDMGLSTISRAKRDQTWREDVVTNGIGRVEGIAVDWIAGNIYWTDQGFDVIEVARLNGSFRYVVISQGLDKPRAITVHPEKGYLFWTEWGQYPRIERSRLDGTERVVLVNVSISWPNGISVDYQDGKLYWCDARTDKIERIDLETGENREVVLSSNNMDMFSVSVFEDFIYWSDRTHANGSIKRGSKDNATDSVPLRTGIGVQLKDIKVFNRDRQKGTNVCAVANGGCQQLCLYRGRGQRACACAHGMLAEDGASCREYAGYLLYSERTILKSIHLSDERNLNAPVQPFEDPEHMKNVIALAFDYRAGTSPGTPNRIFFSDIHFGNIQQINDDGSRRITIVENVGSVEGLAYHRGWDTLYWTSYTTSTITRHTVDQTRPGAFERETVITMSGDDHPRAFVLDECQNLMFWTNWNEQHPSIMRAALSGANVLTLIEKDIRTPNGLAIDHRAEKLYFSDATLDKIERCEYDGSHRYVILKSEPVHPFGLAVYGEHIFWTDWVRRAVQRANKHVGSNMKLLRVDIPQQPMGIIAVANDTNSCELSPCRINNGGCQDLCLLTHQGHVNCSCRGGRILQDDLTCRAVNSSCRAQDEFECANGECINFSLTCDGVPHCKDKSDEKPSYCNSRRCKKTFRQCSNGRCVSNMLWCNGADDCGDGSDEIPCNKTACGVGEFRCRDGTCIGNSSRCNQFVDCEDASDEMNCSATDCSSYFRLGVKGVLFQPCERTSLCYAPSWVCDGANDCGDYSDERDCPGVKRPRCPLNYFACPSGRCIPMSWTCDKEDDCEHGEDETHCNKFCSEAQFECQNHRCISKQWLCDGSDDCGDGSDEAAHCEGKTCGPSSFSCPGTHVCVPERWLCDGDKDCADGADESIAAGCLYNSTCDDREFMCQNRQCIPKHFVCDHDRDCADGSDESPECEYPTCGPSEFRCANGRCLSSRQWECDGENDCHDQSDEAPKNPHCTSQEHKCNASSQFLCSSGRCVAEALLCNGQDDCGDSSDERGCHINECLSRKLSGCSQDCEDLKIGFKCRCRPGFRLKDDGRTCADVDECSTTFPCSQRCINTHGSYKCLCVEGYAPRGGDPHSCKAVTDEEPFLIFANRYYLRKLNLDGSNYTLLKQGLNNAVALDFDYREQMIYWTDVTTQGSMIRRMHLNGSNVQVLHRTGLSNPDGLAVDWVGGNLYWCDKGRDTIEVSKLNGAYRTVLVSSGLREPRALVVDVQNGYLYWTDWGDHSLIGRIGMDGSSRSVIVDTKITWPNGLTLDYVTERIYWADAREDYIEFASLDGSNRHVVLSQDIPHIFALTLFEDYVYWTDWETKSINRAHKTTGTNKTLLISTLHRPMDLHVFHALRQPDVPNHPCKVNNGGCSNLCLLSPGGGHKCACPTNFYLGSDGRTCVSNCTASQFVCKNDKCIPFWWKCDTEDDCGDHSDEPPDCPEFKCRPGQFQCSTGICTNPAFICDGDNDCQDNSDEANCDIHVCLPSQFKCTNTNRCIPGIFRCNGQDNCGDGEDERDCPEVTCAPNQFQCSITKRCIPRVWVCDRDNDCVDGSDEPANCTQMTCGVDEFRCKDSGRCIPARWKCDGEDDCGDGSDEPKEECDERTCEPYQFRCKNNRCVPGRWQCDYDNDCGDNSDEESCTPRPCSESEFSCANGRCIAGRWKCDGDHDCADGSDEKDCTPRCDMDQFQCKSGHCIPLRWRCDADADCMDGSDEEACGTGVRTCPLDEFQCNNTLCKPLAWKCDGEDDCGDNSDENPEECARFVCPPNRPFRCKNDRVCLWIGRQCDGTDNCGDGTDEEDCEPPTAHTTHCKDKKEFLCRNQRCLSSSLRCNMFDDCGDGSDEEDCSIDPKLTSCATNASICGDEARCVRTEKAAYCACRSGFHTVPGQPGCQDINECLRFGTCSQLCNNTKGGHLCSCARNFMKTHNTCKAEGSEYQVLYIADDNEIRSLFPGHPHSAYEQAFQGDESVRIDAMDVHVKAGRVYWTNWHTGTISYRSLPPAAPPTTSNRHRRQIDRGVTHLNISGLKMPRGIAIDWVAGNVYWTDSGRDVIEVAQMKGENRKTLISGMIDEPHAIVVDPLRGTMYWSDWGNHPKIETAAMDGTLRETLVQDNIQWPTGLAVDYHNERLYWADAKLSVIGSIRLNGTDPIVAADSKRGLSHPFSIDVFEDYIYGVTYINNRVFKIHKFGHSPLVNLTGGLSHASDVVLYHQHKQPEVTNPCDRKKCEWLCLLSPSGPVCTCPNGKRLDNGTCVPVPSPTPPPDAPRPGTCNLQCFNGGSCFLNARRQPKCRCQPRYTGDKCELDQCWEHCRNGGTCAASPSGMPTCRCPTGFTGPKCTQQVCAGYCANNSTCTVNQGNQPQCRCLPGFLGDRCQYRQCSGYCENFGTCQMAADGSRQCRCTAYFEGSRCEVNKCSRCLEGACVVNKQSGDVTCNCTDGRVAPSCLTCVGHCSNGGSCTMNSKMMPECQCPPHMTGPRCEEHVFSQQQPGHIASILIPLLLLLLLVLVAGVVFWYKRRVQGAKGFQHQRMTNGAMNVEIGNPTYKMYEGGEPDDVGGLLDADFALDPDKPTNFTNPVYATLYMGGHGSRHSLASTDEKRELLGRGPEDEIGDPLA
Experiment: not given
Conditions: cited from earlier work.
A word on the Kd: it is the equilibrium constant for the complex coming apart. Take RAP (from UniProt P30533): the Kd is 1.4 nM.

A further experiment has as its target low-density lipoprotein receptor-related protein 1 (LRP-1) (UniProt Q07954). Briefly: SPR; BIAcore T200; LRP-1 immobilised on a CM5 chip by amine coupling (3000 RU); 25 °C; 150 mM NaCl, 10 mM CaCl2, 50 mM Tris-HCl, 0.01% Tween-20, pH 7.5; 30 μl/min; ligands or pre-formed complexes injected; one-site binding model; triplicate.
Conditions: not given
One may read the koff as the rate constant with which the complex falls apart. Lower therefore signals a long-lived complex. Usually kon stands for the second-order rate constant of association. Low readings indicate slow association, high ones fast association. For “MMP-1 (E200A), catalytically inactive form of MMP-1 (enzyme)”, the Kd came to 34.6 nM, the koff came to 0.00468 s⁻¹ and the kon worked out at 136000 M⁻¹ s⁻¹.

As to “MMP-1/TIMP-1 complex (from UniProt P01033 24-207)”, the Kd came to 16.5 nM, the off-rate (koff) was 0.0064 s⁻¹ and the kon is 390000 M⁻¹ s⁻¹.

As to “MMP-1/TIMP-2 complex (from UniProt P16035 27-220)”, the Kd turned out to be 7.8 nM, the off-rate constant (koff) came to 0.00327 s⁻¹ and the kon is 419000 M⁻¹ s⁻¹.

“MMP-13/TIMP-2 complex (from UniProt P45452 20-471; P16035 27-220)”: the Kd was 5.59 nM, the koff was found to be 0.00241 s⁻¹ and the kon worked out at 431000 M⁻¹ s⁻¹.

Take “MMP-1/TIMP-3 complex (from UniProt P35625 24-211)”: the Kd is 4.96 nM, the koff stood at 0.00228 s⁻¹ and the kon is 461000 M⁻¹ s⁻¹.

Turning to “MMP-13/TIMP-3 complex (from UniProt P45452 20-471; P35625 24-211)”, the Kd was determined as 3.35 nM, the koff turned out to be 0.00295 s⁻¹ and the kon was 882000 M⁻¹ s⁻¹.

“MMP-13 (E204A), catalytically inactive mutant (enzyme)” showed a Kd of 25.6 nM, a koff of 0.00598 s⁻¹ and a kon of 234000 M⁻¹ s⁻¹.

“MMP-13/TIMP-1 complex (from UniProt P45452 20-471; P01033 24-207)” yielded a Kd of 10.6 nM, a koff of 0.00345 s⁻¹ and a kon of 326000 M⁻¹ s⁻¹.

Substance MMP-1/N-TIMP-3 complex registered a Kd of 4.3 nM, a koff of 0.00246 s⁻¹ and a kon of 573000 M⁻¹ s⁻¹.

The next experiment deals with TIMP-1 (Homo sapiens) (UniProt P01033).
Experiment: not given
The settings on record: cited from earlier work.
One may read the Ki as a dissociation constant, usually derived from enzyme kinetics or from competition with a known ligand. On to MMP-1 (from UniProt P03956), for which the Ki was 0.38 nM.

A further experiment concerns the target TIMP-2 (Homo sapiens) (UniProt P16035).
Experiment: not given
Conditions: cited from earlier work.
Take MMP-1 (from UniProt P03956): the Ki was 1.03 nM.

The target of a further experiment is low-density lipoprotein receptor-related protein 1 (LRP-1) (UniProt Q07954).
Sequence of low-density lipoprotein receptor-related protein 1 (LRP-1) (Q07954 20-4544): as above
Experiment: not given
Conditions: not given
On to full length MMP-1 (enzyme), for which the decrease in clearance of 10 nM intact [35S]MMP-1 from the conditioned medium of HTB94 cells, 0-24 h stood at 20%.

For another experiment, the target named is TIMP-3 (Homo sapiens) (UniProt P35625).
Experiment: not given
Conditions: cited from earlier work.
Regarding MMP-1 (from UniProt P03956), the Ki was 1.1 nM.
